Data published in the nanobody polyreactivity screen of Harvey et al. (2022).

Test: yeast display, Sf9 membrane polyspecificity reagent, FACS + sequencing; frameworks hold sequencing errors
Outline: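 Galactose induction of a Saccharomyces cerevisiae BJ5465 synthetic nanobody display library ran 36–48 hours. The cells were then stained for 1 hour at 4 °C with 10% biotinylated, detergent-solubilized Sf9 membrane reagent, pulled down on streptavidin microbeads and FACS-sorted into low and high (top ~1%) gates on expression and reagent-binding fluorescence. Labels for polyreactivity follow the gate of origin.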

Sequence | polyreactivity (PSR sort gate)
QDQHVESGGGLVQAGGSLRLSCDASGFIFPYYVMGWYRQAPGKERELVAGISSGGRTNYADSVKGRFTISRDNAKNTVYLQMISLKPEDTAVYYCNDRWYRYPPRVRLYYWGQGTQVTVSS | high polyreactivity
QDQHVESGGGLVQAGGSLRLSCDASGFIFTYYAMGWYRQAPGKERELVAAISRSGGNTYYADSVKGRFTISRDNAKNTVYLQMNSLIPEDTAVYYCAAETRRGGYWGYEYYYWGQGTQVTVSS | high polyreactivity
QDQHVESGGGLVQAVGSLRLSCAASGRIIVDYAMGWYRQAPGKERDLVATITNGGSTNYADSVKGRFTISRDNAKNTVYLQMNSLKPEDTAVYYCAVDYLLDYYSYIEDYWGQGTQVTVSS | low polyreactivity
QDQIGESGGGLVQAGGSLSLSCAASGTTIVNNAMGRNRQARWKERELVAAITQRGGRSSYADSVNGRFTISRDNAKNTVYLQMNSLKPEDTAVYYCATVATCRHKGKYNYLGQGTQVTVSS | low polyreactivity
QDQIVESGGGLVQAGGSLRISCAPSGSILGYYGMGWYRQAPGKERELVAAISSSGNTNYADSVKGRFTISRDNAKNTVYFQMNSLKPDDTAVYYCAASFQYVAYFLYVYWGQGTQVTVSS | low polyreactivity
QDQIVESGGGVVQAGGSLRLSCASSGRIFYDYLGWNRQAPGKETELDADISSGGSTHYADSVKGRFTISRDNAKNTVYLQMNSLKGEDTAVYYCIAVLVLSYDKDWRLIEMDYWGQGTHVTVSS | low polyreactivity
QDQLEESGGGLSQAGGSLRLSCAASGINFPSYTMGWSRQATGKERELVAAIDSGGSTYYADSVKGRFTISRDNAKNSVYLQMNSLIPEDTAVYYCAAEPDTYWYTYDYWGQGTQVSVSS | low polyreactivity
QDQLEESGGGLVQAGGSLRLSCAASGSTCVKYARGWYRPAPGKERELVAAISTRGGTTYYADSVKGRFTISRDNAKNTVYLQMNSLKPEDTAVYYCATGSYSRGVAYGYWGQGTQVTVSS | high polyreactivity
QDQLEESGGGLVQAGGSLRLSCAASGYTISPNDMGWYRQAPGKERELVAAITSSVGSTYYADSVKGRFSFSRDNAKNTVYLQMKSLKPEDTAVYYYWGQGTQVTVSS | low polyreactivity
QDQLEESGGGLVQAGGSLRLSCASSGRIFAGYAMGWYRQAPGKERELVAAISGSGGSTYYADSVKGRFTISRDNAKNTVYLQMNSLKPEDTAVFYCNAGKTSRFQYDYWGQGTQVTVSS | high polyreactivity
QDQLEESGGGLVQAGGSLRLSCSASGSIFRRNAMGWYRQAPGKERELVAGITRSTGDTYYADSVKGRFTISRDNAKNTVYLQMNSMKPEDTAVYYCAACGSYYRDDYWGQGTQVTVSS | low polyreactivity
QDQLGDSGGCLVQAGGSLRLSCAASGITFKNYAMVWYRQAPGKEREIVAAISASGGRTYYADSVKGRFTISRDNAKNTVYFPMNSLIPEDTAVYYCNAVYIGSRSRYEYDYWGQGSQVTVSS | high polyreactivity
QDQLGDSGGGLLQAGGSLRLSCAASGQIYFDNMGWYRQAPGKEREMVAAISSSGASTSYADSVKGRFTISRDNAKNTVYLQIYSLNPEDTAVYYCAADSYPAYLGFVGFDYWGQGTQVTVSS | low polyreactivity
QDQLGESGGGLVQAGGRLRLSCAASGFIIWNYGMGWYRQPPGKERELVAAISSGGTITKYADSVKGRFTISRDNAKNTVYLQMNSLKPEDTAVYYWAARWGVRAGYATFDYWGQGTQVTVSS | high polyreactivity
QDQLGESGGGLVQAGGSLRLSGAASGSTFSRNAMGWYRQAPGKERELVAAISRSGGSTHYADSVKGRFTISRDNAKNTVYLQMNSQKPEDTAVYYCAARVPRGDLPGYHYAYYYWGQGTQVTVSS | high polyreactivity
QDQLGESGGGVVQAGGSLRLSCAAYGRTLHYYAMGWYRQAPGKERELVAGIRDSGGSTYYADSVKGRFTISRDNEMNTVYFLMNSLKPEDTAVYYCAARSHRRLMYYWGQGTQVNVSS | high polyreactivity
